Measured values: PMC8770708
Where “and” joins values, the source holds several entries; their conditions need not be identical. Equal entries are not always repeated.

Columns and labels:
[1] = molecular target: TraB with a C-terminal double twin-Strep tag (TraB_(Strep4)), VirB10-like subunit of the pED208-encoded T4SS (IncFV plasmid pED208 (carried in E. coli)); assay: cryo-EM structure; OMCC purified in the same way from E. coli BL21(DE3, pKBV) producing only TraV, TraK and TraB_(Strep4); C13 reconstruction of the ORC, C17 and C16 reconstructions of the CC
[2] = molecular target: TraB with a C-terminal double twin-Strep tag (TraB_(Strep4)), VirB10-like subunit of the pED208-encoded T4SS (IncFV plasmid pED208 (carried in E. coli)); assay: cryo-EM structure; OMCC purified from E. coli MC4100(pED208-traB_(Strep4)) (WT) by StrepTrap and Superdex 200 in 50 mM Tris-HCl pH 8, 200 mM NaCl, 1 mM DTT, 1 mM EDTA, 0.06% DM-NPG, 0.1% digitonin; C1, C13 and C17 reconstructions
[3] = molecular target: TraK, VirB9-like subunit of the pED208-encoded T4SS (IncFV plasmid pED208 (carried in E. coli)); assay: as above
[4] = molecular target: TraV, VirB7-like lipoprotein subunit of the pED208-encoded T4SS (IncFV plasmid pED208 (carried in E. coli)); assay: as above

TraB with a C-terminal double twin-Strep tag (TraB_(Strep4)), VirB10-like subunit of the pED208-encoded T4SS (natural protein)
stoichiometry N [1]: 16 and 17
stoichiometry N [2]: 17 copies

TraK, VirB9-like subunit of the pED208-encoded T4SS (natural protein)
stoichiometry N [3]: 26 copies

TraV, VirB7-like lipoprotein subunit of the pED208-encoded T4SS (natural protein)
stoichiometry N [4]: 26 copies
